Data on 8 proteins can be found in PMC3655812 (Molecular Biology of the Cell, 2013).

This series concerns the molecule itself. The series is described as follows: SEC. A general note: Size exclusion chromatography separates by hydrodynamic size, large species first.

B1: MBP-Mgm101 (wild-type fusion of maltose-binding protein with Mgm101 lacking the mitochondrial targeting signal) (natural protein, yeast, UniProt P32787 23-269, looked up)
chain: VVSTGTSNTATAGAVRKSFNSTETKPVFATKSEAGNGSHMKEYSSGINSKLGGTPLETRSTADDSLNNSYKQVKGDIDWYTSWYGLGMKPFEAKVQKDLIEPLDPKDIEIKPDGLIYLPEIKYRRILNKAFGAGGWGLVPRSQTIVTSKLVTREYGLICHGQLISVARGEQDYFNEAGIPTATEGCKSNALMRCCKDLGVGSELWDPVFIKKFKVDHCTEKFVEHVTTKRKKKIWLRKDRQVEYPYK
On to B1, for which the binding result was “binds”.

B2: MBP-Mgm101^K253A (natural protein, yeast, UniProt P32787 23-269, looked up)
chain: VVSTGTSNTATAGAVRKSFNSTETKPVFATKSEAGNGSHMKEYSSGINSKLGGTPLETRSTADDSLNNSYKQVKGDIDWYTSWYGLGMKPFEAKVQKDLIEPLDPKDIEIKPDGLIYLPEIKYRRILNKAFGAGGWGLVPRSQTIVTSKLVTREYGLICHGQLISVARGEQDYFNEAGIPTATEGCKSNALMRCCKDLGVGSELWDPVFIKKFKVDHCTEKFVEHVTTKRAKKIWLRKDRQVEYPYK
For the protein B2, the binding result is “binds”.

B3: Mgm101^K253A (tag-free) (natural protein, yeast, UniProt P32787 23-269, looked up)
chain: VVSTGTSNTATAGAVRKSFNSTETKPVFATKSEAGNGSHMKEYSSGINSKLGGTPLETRSTADDSLNNSYKQVKGDIDWYTSWYGLGMKPFEAKVQKDLIEPLDPKDIEIKPDGLIYLPEIKYRRILNKAFGAGGWGLVPRSQTIVTSKLVTREYGLICHGQLISVARGEQDYFNEAGIPTATEGCKSNALMRCCKDLGVGSELWDPVFIKKFKVDHCTEKFVEHVTTKRAKKIWLRKDRQVEYPYK
As for B3, the binding result is listed as “binds”.

B4: Mgm101^Y139A (tag-free) (natural protein, yeast, UniProt P32787 23-269, looked up)
chain: VVSTGTSNTATAGAVRKSFNSTETKPVFATKSEAGNGSHMKEYSSGINSKLGGTPLETRSTADDSLNNSYKQVKGDIDWYTSWYGLGMKPFEAKVQKDLIEPLDPKDIEIKPDGLIALPEIKYRRILNKAFGAGGWGLVPRSQTIVTSKLVTREYGLICHGQLISVARGEQDYFNEAGIPTATEGCKSNALMRCCKDLGVGSELWDPVFIKKFKVDHCTEKFVEHVTTKRKKKIWLRKDRQVEYPYK
With B4, the binding result is reported as “binds”.

B5: MBP-Mgm101^W257A (natural protein, yeast, UniProt P32787 23-269, looked up)
chain: VVSTGTSNTATAGAVRKSFNSTETKPVFATKSEAGNGSHMKEYSSGINSKLGGTPLETRSTADDSLNNSYKQVKGDIDWYTSWYGLGMKPFEAKVQKDLIEPLDPKDIEIKPDGLIYLPEIKYRRILNKAFGAGGWGLVPRSQTIVTSKLVTREYGLICHGQLISVARGEQDYFNEAGIPTATEGCKSNALMRCCKDLGVGSELWDPVFIKKFKVDHCTEKFVEHVTTKRKKKIALRKDRQVEYPYK
Regarding B5, the binding result was “binds”.

B6: Mgm101^(K251-K253)A (tag-free) (natural protein, yeast, UniProt P32787 23-269, looked up)
chain: VVSTGTSNTATAGAVRKSFNSTETKPVFATKSEAGNGSHMKEYSSGINSKLGGTPLETRSTADDSLNNSYKQVKGDIDWYTSWYGLGMKPFEAKVQKDLIEPLDPKDIEIKPDGLIYLPEIKYRRILNKAFGAGGWGLVPRSQTIVTSKLVTREYGLICHGQLISVARGEQDYFNEAGIPTATEGCKSNALMRCCKDLGVGSELWDPVFIKKFKVDHCTEKFVEHVTTAAAKKIWLRKDRQVEYPYK
With B6, the binding result is “binds”.

B7: MBP-Mgm101^(K251-K253)A (natural protein, yeast, UniProt P32787 23-269, looked up)
chain: VVSTGTSNTATAGAVRKSFNSTETKPVFATKSEAGNGSHMKEYSSGINSKLGGTPLETRSTADDSLNNSYKQVKGDIDWYTSWYGLGMKPFEAKVQKDLIEPLDPKDIEIKPDGLIYLPEIKYRRILNKAFGAGGWGLVPRSQTIVTSKLVTREYGLICHGQLISVARGEQDYFNEAGIPTATEGCKSNALMRCCKDLGVGSELWDPVFIKKFKVDHCTEKFVEHVTTAAAKKIWLRKDRQVEYPYK
B7: the binding result was “binds”.

B8: MBP-Mgm101^Y268A (natural protein, yeast, UniProt P32787 23-269, looked up)
chain: VVSTGTSNTATAGAVRKSFNSTETKPVFATKSEAGNGSHMKEYSSGINSKLGGTPLETRSTADDSLNNSYKQVKGDIDWYTSWYGLGMKPFEAKVQKDLIEPLDPKDIEIKPDGLIYLPEIKYRRILNKAFGAGGWGLVPRSQTIVTSKLVTREYGLICHGQLISVARGEQDYFNEAGIPTATEGCKSNALMRCCKDLGVGSELWDPVFIKKFKVDHCTEKFVEHVTTKRKKKIWLRKDRQVEYPAK
Regarding B8, the binding result is “binds”.
